Experiments:
[1] = molecular target: SauCas9 WED-PI domain construct, His-tagged (Staphylococcus aureus); test: ITC; AcrIIA13b mutants E31K and E39K with SauCas9 and WED-PI (Fig. S7); buffer not told for this experiment
[2] = molecular target: Staphylococcus aureus Cas9, full length, His-tagged (UniProt J7RUA5); test: SEC co-migration followed by SDS/PAGE band quantification; conditions: fraction eluted around 12 mL in SEC; n = 3; parent: est. 100; read off a plot
[3] = molecular target: Staphylococcus haemolyticus AcrIIA13b, wild type, with C-terminal 6xHis tag (Staphylococcus haemolyticus); test: SEC-MALS; Superdex 200 Increase 10/300 GL, 20 mM Tris/HCl pH 8.0, 150 mM NaCl, 20 °C, 0.5 mL/min; SEC profiles and MALS of wild type and mutants; monomer and dimer peaks coexist
[4] = molecular target: Staphylococcus aureus Cas9, full length, His-tagged (Staphylococcus aureus) (UniProt J7RUA5); test: ITC; PBS pH 7.4, 20 °C; AcrIIA13b (500 μM) injected into the target protein (50 μM) in the cell, 25 injections; single-site model
[5] = molecular target: SauCas9 PI (PAM-interacting) domain, His-tagged (Staphylococcus aureus); test: as above

Row | Substance | percent of parent [2] [%] | other results
1 | AcrIIA13b E39K mutant (natural protein) | – | Kd [1]: 1.31 µM
2 | Staphylococcus haemolyticus AcrIIA13b, wild type, with C-terminal 6xHis tag Q25W | 46 | –
3 | Staphylococcus haemolyticus AcrIIA13b, wild type, with C-terminal 6xHis tag E39K | 35 | –
4 | Staphylococcus haemolyticus AcrIIA13b, wild type, with C-terminal 6xHis tag Q87W | 75 | –
5 | Staphylococcus haemolyticus AcrIIA13b, wild type, with C-terminal 6xHis tag (natural protein) | – | stoichiometry N [3]: 2; Kd [4]: 4.47 µM; Kd [5]: 0.97 µM
6 | Staphylococcus haemolyticus AcrIIA13b, wild type, with C-terminal 6xHis tag E31K | 13 | –
7 | Staphylococcus haemolyticus AcrIIA13b, wild type, with C-terminal 6xHis tag E21K | 75 | –
8 | Staphylococcus haemolyticus AcrIIA13b, wild type, with C-terminal 6xHis tag E89W | 84 | –
9 | Staphylococcus haemolyticus AcrIIA13b, wild type, with C-terminal 6xHis tag E94W | 87 | –
